The labels stand for the following.
B1: TPR t1 (parent)
chain: GACCAAUCUGCCCUCAGAGCUCGAGAACAUCUUCGGAUGCAGAGGAGGCAGGCUUCGGUGGCGCGAUAGCGCCAACGUCCUCAACCUCCAAUGCAUCCCACCACAUGAUGAUGCCUGAAGAGCCUUGGUUUUUUG

In this series the parent is B1. The experiment in a line: polymerase ribozyme fitness, log enrichment relative to wild type (log ratio); higher = more active; in vitro selection for triplet polymerase activity. An outline of the steps: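 PCR was used to build mutant libraries for each subunit of a heterodimeric triplet polymerase ribozyme, which were then transcribed. A single in vitro selection round, in triplicate, used a frozen incubation at −7 °C and recovered extended constructs by gel excision, streptavidin beads and RT-PCR. Fitness is the logarithm of genotype enrichment relative to wild-type enrichment, averaged over replicates with inverse-variance weights. The logarithm is base 2, and after Illumina sequencing only genotypes with ≥10 input reads and ≥1 read per output were kept.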
Consider C62A A66U, for which the “polymerase ribozyme fitness (log ratio)” value is -3.17.

For G10U G39A C98U, the “polymerase ribozyme fitness (log ratio)” value is -1.4.

As for A27C C56A, the “polymerase ribozyme fitness (log ratio)” value was -3.22.

Take G93A C102A: the “polymerase ribozyme fitness (log ratio)” value is -1.81.

In the case of G69U C115A G120A, the “polymerase ribozyme fitness (log ratio)” value stood at 0.825.

With G19C C40U G48U G110C, the “polymerase ribozyme fitness (log ratio)” value is -6.52.

Turning to A5G A26C A100U U106A C124A, the “polymerase ribozyme fitness (log ratio)” value was -1.48.

As to U55C C70U C88G, the “polymerase ribozyme fitness (log ratio)” value is -0.976.

As to G48C C62A G63U A121G, the “polymerase ribozyme fitness (log ratio)” value was -4.74.

As to A50C G107U, the “polymerase ribozyme fitness (log ratio)” value is -5.95.

Consider C12G A41U A83U G113C, for which the “polymerase ribozyme fitness (log ratio)” value was -3.27.

Take C53U G71A G93A: the “polymerase ribozyme fitness (log ratio)” value is -1.43.

For G42A C82A U87A G93C C124G, the “polymerase ribozyme fitness (log ratio)” value was -1.42.

On to A6U A18G G93A, for which the “polymerase ribozyme fitness (log ratio)” value is -5.43.

In the case of C53A G61C U116C, the “polymerase ribozyme fitness (log ratio)” value is -5.85.

Turning to G93U A95U C97G G120U C124U, the “polymerase ribozyme fitness (log ratio)” value is -6.74.

With A37G C72G C73U A74U, the “polymerase ribozyme fitness (log ratio)” value was -6.02.

Consider G45U C73A A95U, for which the “polymerase ribozyme fitness (log ratio)” value was -1.21.

C4G G44U C88A C124A: the “polymerase ribozyme fitness (log ratio)” value was -1.23.

With C40G C56A G69C C115G, the “polymerase ribozyme fitness (log ratio)” value was -6.15.

Take U78C C94G A95G A118U: the “polymerase ribozyme fitness (log ratio)” value is -0.801.

Take A37U G48A G61C U116A: the “polymerase ribozyme fitness (log ratio)” value was -4.18.

Consider G17A A43U C88A U96A U129A, for which the “polymerase ribozyme fitness (log ratio)” value is -3.98.

As for U78G A95G U125G, the “polymerase ribozyme fitness (log ratio)” value was -1.07.

On to G45U C115U, for which the “polymerase ribozyme fitness (log ratio)” value was -2.6.

For the variant C28G G60U U130G, the “polymerase ribozyme fitness (log ratio)” value is -2.82.

For the variant U7G G47A C56A C70G, the “polymerase ribozyme fitness (log ratio)” value was -5.1.

In the case of C12A C28G C34A C80U C123A, the “polymerase ribozyme fitness (log ratio)” value is -6.06.

In the case of G35A G69C U87G, the “polymerase ribozyme fitness (log ratio)” value is -5.37.

As to C8G C79U G110C, the “polymerase ribozyme fitness (log ratio)” value is -4.01.

A29G C49A: the “polymerase ribozyme fitness (log ratio)” value is -1.64.

Take U133G: the “polymerase ribozyme fitness (log ratio)” value was -0.279.

Regarding G39U A84U, the “polymerase ribozyme fitness (log ratio)” value is -1.03.

Turning to C94U C115A, the “polymerase ribozyme fitness (log ratio)” value was -0.137.

As to A41U G63C A95C, the “polymerase ribozyme fitness (log ratio)” value is -3.24.

Turning to C12G U92C G120U, the “polymerase ribozyme fitness (log ratio)” value came to 1.41.

In the case of C34A G69C, the “polymerase ribozyme fitness (log ratio)” value is -4.71.

With G51A A68U C82U C124U, the “polymerase ribozyme fitness (log ratio)” value is -7.31.

As for A103U G113A, the “polymerase ribozyme fitness (log ratio)” value is -3.81.

With C11G C12A C64U U96C A108G, the “polymerase ribozyme fitness (log ratio)” value is -2.32.

With A2U G51A C123A, the “polymerase ribozyme fitness (log ratio)” value was -4.9.

C3G C22A G69A C124G G128C: the “polymerase ribozyme fitness (log ratio)” value was -4.83.

For the variant C15U G71U, the “polymerase ribozyme fitness (log ratio)” value is -1.38.

On to G61A G107U, for which the “polymerase ribozyme fitness (log ratio)” value is -4.9.

C3G C11G G19U G63A G120A: the “polymerase ribozyme fitness (log ratio)” value was -5.7.

In the case of C53G G69A, the “polymerase ribozyme fitness (log ratio)” value was -3.62.

Regarding A2G C56A C73U A84U G120U, the “polymerase ribozyme fitness (log ratio)” value was -1.68.

Consider A43U A46U A105U C124G, for which the “polymerase ribozyme fitness (log ratio)” value was -4.04.

In the case of G52C C124U, the “polymerase ribozyme fitness (log ratio)” value was determined as 1.26.

As to U14C C15U C73G, the “polymerase ribozyme fitness (log ratio)” value was -3.76.

Consider C56U A84G U133G, for which the “polymerase ribozyme fitness (log ratio)” value was -1.14.

For the variant C4U C11G, the “polymerase ribozyme fitness (log ratio)” value was found to be 0.407.

As to C73A U87C U96C A111G, the “polymerase ribozyme fitness (log ratio)” value is -0.596.

For the variant C20U G39U C89U A119U U130G, the “polymerase ribozyme fitness (log ratio)” value is -4.97.

Consider C28U C62U G69U, for which the “polymerase ribozyme fitness (log ratio)” value was -1.04.

With G61C U126A, the “polymerase ribozyme fitness (log ratio)” value was -2.98.

As for G69C C94A U112G C124G, the “polymerase ribozyme fitness (log ratio)” value is -1.99.

Consider C3G A50C C73A A95U, for which the “polymerase ribozyme fitness (log ratio)” value was -2.64.

For C13G A41U C56U A121G, the “polymerase ribozyme fitness (log ratio)” value was determined as 0.91.

On to C62U U87C, for which the “polymerase ribozyme fitness (log ratio)” value is -0.408.

Take C8U C13G G110U: the “polymerase ribozyme fitness (log ratio)” value is -1.09.

In the case of C15U A29U C40A A46C, the “polymerase ribozyme fitness (log ratio)” value is -5.8.

Regarding U9C U96A, the “polymerase ribozyme fitness (log ratio)” value amounted to 0.079.

Regarding C53G G61C, the “polymerase ribozyme fitness (log ratio)” value is -1.1.

A2G G19A A43G C80U C104U: the “polymerase ribozyme fitness (log ratio)” value was -4.42.

As to A26U A41C, the “polymerase ribozyme fitness (log ratio)” value was -4.03.

In the case of G39A C72G G113A, the “polymerase ribozyme fitness (log ratio)” value is -2.17.

For U7G C72U C115U, the “polymerase ribozyme fitness (log ratio)” value worked out at 0.671.

A46U C56G G120C: the “polymerase ribozyme fitness (log ratio)” value was -0.234.

On to C53A C56A A90G C97A U132C, for which the “polymerase ribozyme fitness (log ratio)” value was -3.46.

Take A6U A26U G39A C49G G61A C88U C124G: the “polymerase ribozyme fitness (log ratio)” value was -3.73.

Consider G69U C79G U109G, for which the “polymerase ribozyme fitness (log ratio)” value was -2.86.

As for A41U C104U C124U, the “polymerase ribozyme fitness (log ratio)” value was determined as 0.576.

Regarding C8G G36C A84U C115U G122U, the “polymerase ribozyme fitness (log ratio)” value was -1.01.

In the case of A6G G69A C115A G120A, the “polymerase ribozyme fitness (log ratio)” value was -1.22.

On to C12G G44U G60U A100U, for which the “polymerase ribozyme fitness (log ratio)” value is -0.779.

As to C13G C20U G48A, the “polymerase ribozyme fitness (log ratio)” value was -3.29.

Consider C12A A37U C114G, for which the “polymerase ribozyme fitness (log ratio)” value was -3.99.

With U9G C13A G48C C56A C72A U78A, the “polymerase ribozyme fitness (log ratio)” value was -1.24.

With G60A C88G, the “polymerase ribozyme fitness (log ratio)” value was -1.54.

With C13A A29G C70U A95U C124A, the “polymerase ribozyme fitness (log ratio)” value is -1.57.

Regarding A37C C64U C115G, the “polymerase ribozyme fitness (log ratio)” value was -1.35.

As to G39C G127C, the “polymerase ribozyme fitness (log ratio)” value was -1.46.

As to C80U G113U, the “polymerase ribozyme fitness (log ratio)” value was -3.41.

The values above are taken from the RNAGym collection of RNA variant scans (doi:10.1073/pnas.2313332121).
